Source: patent US20220387557A1 (OXFORD UNIVERSITY INNOVATION, published 2022)
Positions count from the first letter of the chain named.

T1: Fc tagged human TNFR2 (Sino Biological) (human, UniProt P20333 23-257)
T1 construct: Bought reagent; also called hTNFR2; hTNFR2-Fc; not shown: Fc tag of the bought protein
T1 sequence (looked up): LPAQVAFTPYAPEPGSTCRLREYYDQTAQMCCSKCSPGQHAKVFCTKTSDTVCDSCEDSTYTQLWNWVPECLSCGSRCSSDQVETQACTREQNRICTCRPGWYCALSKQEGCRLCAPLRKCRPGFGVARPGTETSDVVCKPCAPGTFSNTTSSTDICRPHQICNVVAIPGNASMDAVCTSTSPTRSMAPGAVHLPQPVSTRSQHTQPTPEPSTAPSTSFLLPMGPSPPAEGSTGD

T2: Fc tagged human TNFR1 (Sino Biological) (human, UniProt P19438 22-211, limits assumed)
T2 construct: Bought reagent; also called hTNFR1; hTNFR1-Fc; not shown: Fc tag of the bought protein
T2 sequence (looked up): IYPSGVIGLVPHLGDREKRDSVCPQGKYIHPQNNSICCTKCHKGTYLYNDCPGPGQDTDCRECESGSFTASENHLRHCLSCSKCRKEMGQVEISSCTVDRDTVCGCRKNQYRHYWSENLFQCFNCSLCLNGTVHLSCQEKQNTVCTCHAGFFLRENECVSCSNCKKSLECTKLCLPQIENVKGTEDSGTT

T3: Fc tagged mouse TNFR1 (Sino Biological) (mouse, UniProt P25118 22-212, limits assumed)
T3 construct: Bought reagent; also called mTNFR1; mTNFR1-Fc; not shown: Fc tag of the bought protein
T3 sequence (looked up): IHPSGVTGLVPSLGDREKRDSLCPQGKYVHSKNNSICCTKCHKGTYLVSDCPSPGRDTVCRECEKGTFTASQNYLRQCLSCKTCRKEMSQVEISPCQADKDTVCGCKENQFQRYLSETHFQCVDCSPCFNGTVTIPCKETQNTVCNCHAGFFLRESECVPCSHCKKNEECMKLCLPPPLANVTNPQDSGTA

T4: Fc tagged mouse TNFR2 (Sino Biological) (mouse, UniProt P25119 23-258)
T4 construct: Bought reagent; also called mTNFR2; mTNF2; not shown: Fc tag of the bought protein
T4 sequence (looked up): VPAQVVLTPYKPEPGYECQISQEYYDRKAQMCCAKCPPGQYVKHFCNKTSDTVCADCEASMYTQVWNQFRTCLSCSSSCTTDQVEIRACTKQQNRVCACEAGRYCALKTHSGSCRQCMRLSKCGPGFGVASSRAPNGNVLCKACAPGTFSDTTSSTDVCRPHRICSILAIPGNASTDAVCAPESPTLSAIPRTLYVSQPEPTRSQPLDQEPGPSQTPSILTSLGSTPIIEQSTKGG

B1: TNF mutein C8 (ligand)
chain: VRSSSRTPSDKPVAHVVANPQAEGQLQWLNRRANALLANGVELRDNQLVVPSEGLYLIYSQVLFKGQGCPSTHVLLTHTISRISQTHDGKVNLLSAIKSPCQRETPEGAEAKPWYEPIYLGGVFQLEKGDRLSAEINRPDYLDFAESGQVYFGIIAL
notes: Human TNF mutein, SQTHDG at positions 84-89; not shown: C-terminal FLAG tag and His6 tag from vector pANT65
B2: TNF mutein B4 (ligand)
chain: B1 chain with R6H, Q85E, T86S
notes: Human TNF mutein, SESHDG at positions 84-89; not shown: C-terminal FLAG tag and His6 tag from vector pANT65
B3: TNF mutein B5 (ligand)
chain: B1 chain with R2H, S84T, Q85G, H87Y, D88V, G89D
notes: Human TNF mutein, TGTYVD at positions 84-89; not shown: C-terminal FLAG tag and His6 tag from vector pANT65
B4: TNF mutein C4 (ligand)
chain: B1 chain with Q85H, T86S, H87V, D88E
notes: Human TNF mutein, SHSVEG at positions 84-89; not shown: C-terminal FLAG tag and His6 tag from vector pANT65
B5: TNF mutein F7 (ligand)
chain: B1 chain with R2H, Q85E, H87V, D88V, A134V
notes: Human TNF mutein, SETVVG at positions 84-89; not shown: C-terminal FLAG tag and His6 tag from vector pANT65
B6: TNF mutein F3 (ligand)
chain: B1 chain with S84T, Q85T, H87Y, D88R, G89L, I155V
notes: Human TNF mutein, TTTYRL at positions 84-89; not shown: C-terminal FLAG tag and His6 tag from vector pANT65
B7: TNF mutein B6 (ligand)
chain: B1 chain with S84T, Q85G, H87Y, D88S, G89Y
notes: Human TNF mutein, TGTYSY at positions 84-89; not shown: C-terminal FLAG tag and His6 tag from vector pANT65
B8: TNF mutein G4 (ligand)
chain: B1 chain with Q85S, H87Y, D88N, G89P
notes: Human TNF mutein, SSTYNP at positions 84-89; also called mutTNF G4; mutTNF; not shown: C-terminal FLAG tag and His6 tag from vector pANT65
B9: mouse TNF (mTNF), soluble protein expressed from pANT65 (ligand, UniProt P06804 80-235, looked up)
chain: LRSSSQNSSDKPVAHVVANHQVEEQLEWLSQRANALLANGMDLKDNQLVVPADGLYLVYSQVLFKGQGCPDYVLLTHTVSRFAISYQEKVNLLSAVKSPCPKDTPEGAELKPWYEPIYLGGVFQLEKGDQLSAEVNLPKYLDFAESGQVYFGVIAL
notes: not shown: C-terminal FLAG tag and His6 tag from vector pANT65

Molecular target: T1, Fc tagged human TNFR2 (Sino Biological)
Assay: SPR, Biacore T200 multi cycle kinetics, 1:1 model; ** = a residual amount of binding is observed but 1 to 1 model is a poor fit
Method: (§1) Multi cycle kinetics analysis of binding to hTNFR1, hTNFR2, mTNFR1 and mTNFR2 was performed on the 10 lead variants using a Biacore T200 (serial no. 1909913) instrument running Biacore T200 Evaluation Software V3.0.1 (Uppsala, Sweden) to characterise further the binding to these receptors.
As with the single cycle kinetics, receptor binding was assessed in two separate experiments. In the first set of experiments binding to hTNFR1 (Fc2), hTNFR2 (Fc3) and mTNFR1 (Fc4) was assessed. In the second set of experiments the extent of mTNF2 (Fc4) binding was assessed using hTNFR1 (Fc2) and hTNFR2 (Fc3) as controls. All receptors were diluted in running buffer to a concentration of ˜4 μg/mL and at the start of each cycle loaded onto Fc2, Fc3 and Fc4 of a Protein A CM5 chip and captured at a flow rate of 10 μL/min to give an RU of ˜40-100. The surface was then allowed to stabilise. All kinetic data was obtained using a flow rate of 75 μl/min to minimise any potential mass transfer effects. […] The association phase of TNF was monitored for 280 seconds and the dissociation phase was measured for 2100 seconds. […] Regeneration of the Protein A surface was conducted using two injections of 10 mM glycine-HCL pH 1.5 at the end of each cycle. […]

Binder | Kd
B1 | 4.13 nM

Molecular target: T2, Fc tagged human TNFR1 (Sino Biological)
Assay: SPR, Biacore T200 multi cycle kinetics, receptor-Fc captured on Protein A chip, TNF 1.25-40 nM, 1:1 model
Method: as §1
(§2) As with the single cycle kinetics, receptor binding was assessed in two separate experiments. In the first set of experiments binding to hTNFR1 (Fc2), hTNFR2 (Fc3) and mTNFR1 (Fc4) was assessed. In the second set of experiments the extent of mTNF2 (Fc4) binding was assessed using hTNFR1 (Fc2) and hTNFR2 (Fc3) as controls. All receptors were diluted in running buffer to a concentration of ˜4 μg/mL and at the start of each cycle loaded onto Fc2, Fc3 and Fc4 of a Protein A CM5 chip and captured at a flow rate of 10 μL/min to give an RU of ˜40-100. The surface was then allowed to stabilise. All kinetic data was obtained using a flow rate of 75 μl/min to minimise any potential mass transfer effects. […] The association phase of TNF was monitored for 280 seconds and the dissociation phase was measured for 2100 seconds. […] Regeneration of the Protein A surface was conducted using two injections of 10 mM glycine-HCL pH 1.5 at the end of each cycle. The signal from the reference channel Fc1 was subtracted from that of Fc2, Fc3 and Fc4 to correct for differences in non-specific binding to a reference surface, and a global Rmax parameter was used in the 1-to-1 binding model.

Binder | Kd
B2 | 0.11 nM
B3 | 0.0591 nM
B4 | 0.0306 nM
B5 | 0.0465 nM
B6 | 0.462 nM
B7 | 0.339 nM
B1 | 0.261 nM
B8 | 0.00872 nM

Molecular target: T3, Fc tagged mouse TNFR1 (Sino Biological)
Assay: as above
Method: as §1, §2

Binder | Kd
B2 | 0.153 nM
B3 | 0.289 nM
B4 | 0.208 nM
B5 | 0.208 nM
B6 | 5.08 nM
B7 | 0.59 nM
B1 | 0.112 nM
B8 | 0.14 nM

Molecular target: T4, Fc tagged mouse TNFR2 (Sino Biological)
Assay: SPR (Biacore T200) single cycle kinetics, Fc-tagged receptor captured on Protein A chip, TNF protein as analyte at 1.67-15 nM
Method: (§3) Single cycle kinetic analysis was performed using a Biacore T200 (serial no. 1909913) running Biacore T200 Evaluation Software V2.0.1 (Uppsala, Sweden). All experiments were run at 25° C. with HBS-P+ running buffer (pH 7.4) (GE Healthcare, Little Chalfont, UK).
(§4) Due to the limit in the number of available flow cells for analysis (three Fc per analysis, Fc2, Fc3 and Fc4, with Fc1 always being used as blank reference for non-specific subtraction), receptor binding was assessed in two separate overlapping runs using either: hTNFR1 (Fc2), hTNFR2 (Fc3) and mTNFR1 (Fc4), or; hTNFR1 (Fc2), […] and mTNFR2 (Fc4). Receptors were diluted in running buffer to a concentration of ˜4 μg/mL and at the start of each cycle loaded onto Fc2, Fc3 and Fc4 of a Protein A chip (GE Healthcare, Little Chalfont, UK) at a flow rate of 10 μL/min to give an RU of 40-100. The surface was then allowed to stabilise. Single cycle kinetic data was obtained at a flow rate of 45 μL/min. […] The association phase for the three injections of increasing concentrations of TNF was monitored for 240 seconds and a single dissociation phase was measured for 2700 seconds following the last injection of TNF. Regeneration of the Protein A surface was conducted using 10 mM glycine-HCl pH 1.5. The signal from the reference channel Fc1 (no receptor) was subtracted from that of Fc2, Fc3 and Fc4 to correct for differences in non-specific binding to a reference surface.
(§5) Controls were used to ensure the integrity of the receptors during the Biacore run.

Binder | binding result
B9 | binds
B2 | no binding (tested: 15 nM)
B3 | no binding (tested: 15 nM)
B4 | no binding (tested: 15 nM)
B5 | no binding (tested: 15 nM)
B7 | no binding (tested: 15 nM)
B1 | no binding (tested: 15 nM)
B8 | no binding (tested: 15 nM)

Molecular target: T1, Fc tagged human TNFR2 (Sino Biological)
Assay: as above
Method: as §3, §4, §5

Binder | binding result
B9 | binds
B3 | no binding (tested: 15 nM)
B4 | no binding (tested: 15 nM)
B5 | no binding (tested: 15 nM)
B6 | no binding (tested: 15 nM)
B7 | no binding (tested: 15 nM)
B8 | no binding (tested: 15 nM)

Molecular target: T2, Fc tagged human TNFR1 (Sino Biological)
Assay: SPR, Biacore single cycle kinetics, stability study, after 1 year at -20° C.
Method: as §4
(§6) At day zero (prior to freezing) and following thawing on ice after 3 months and 1 year the following assays were performed: [0341] SDS-PAGE [0342] OD280 nm [0343] Single cycle Biacore for binding to hTNFR1, hTNFR2 and mTNFR1

Binder | Kd
B3 | 0.0493 nM
B5 | 0.0262 nM
B6 | 0.0271 nM
B7 | 0.0526 nM
B8 | 0.0331 nM

Molecular target: T3, Fc tagged mouse TNFR1 (Sino Biological)
Assay: as above
Method: as §4, §6

Binder | Kd
B3 | 0.115 nM
B5 | 0.111 nM
B6 | 0.527 nM
B7 | 0.711 nM
B8 | 0.0692 nM

Molecular target: T2, Fc tagged human TNFR1 (Sino Biological)
Assay: SPR, Biacore T200 single cycle kinetics, receptor-Fc captured on Protein A chip, TNF 1.67-15 nM
Method: as §3, §4

Binder | Kd
B2 | 0.0195 nM
B3 | 0.0199 nM
B4 | 0.0129 nM
B5 | 0.0424 nM
B6 | 0.635 nM
B7 | 0.0169 nM
B1 | 0.188 nM
B8 | 0.0171 nM

Molecular target: T3, Fc tagged mouse TNFR1 (Sino Biological)
Assay: as above
Method: as §3, §4

Binder | Kd
B2 | 0.132 nM
B3 | 0.128 nM
B4 | 0.0323 nM
B5 | 0.0827 nM
B6 | 7.35 nM
B7 | 0.304 nM
B1 | 0.363 nM
B8 | 0.0407 nM

Molecular target: T2, Fc tagged human TNFR1 (Sino Biological)
Assay: SPR, Biacore single cycle kinetics, stability study, before freezing (t=0)
Method: as §4, §6

Binder | Kd
B3 | 0.0355 nM
B5 | 0.022 nM
B6 | 0.012 nM
B7 | 0.0969 nM
B8 | 0.0173 nM

Molecular target: T3, Fc tagged mouse TNFR1 (Sino Biological)
Assay: as above
Method: as §4, §6

Binder | Kd
B3 | 0.0771 nM
B5 | 0.116 nM
B6 | 0.11 nM
B7 | 0.067 nM
B8 | 0.07 nM

Molecular target: T2, Fc tagged human TNFR1 (Sino Biological)
Assay: SPR, Biacore single cycle kinetics, stability study, after 1 year at -80° C.
Method: as §4, §6

Binder | Kd
B3 | 0.0446 nM
B5 | 0.0353 nM
B6 | 0.023 nM
B7 | 0.0667 nM
B8 | 0.0399 nM

Molecular target: T3, Fc tagged mouse TNFR1 (Sino Biological)
Assay: as above
Method: as §4, §6

Binder | Kd
B3 | 0.0977 nM
B5 | 0.165 nM
B6 | 0.398 nM
B7 | 0.0474 nM
B8 | 0.0458 nM
